In the supplement of paper PMC9732359:
± gives the uncertainty stated by the source.

Test: protein stability index of a GFP-peptide fusion (yeast GPS) (PSI 1-4); higher = more stable; sorted into four equal gates, so the index is relative within each strain
Method in brief: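 Plasmids isolated from each sorting gate were PCR-amplified and Illumina-sequenced, and barcodes assigned the reads to strains. The gates, four of equal size, were set by GFP/Cherry fluorescence ratio on mid-log cultures in leucine-free medium. These cultures were yeast carrying a pooled library of tiled 17-residue yeast protein peptides fused downstream of GFP on a plasmid that also expresses Cherry. The protein stability index is the sum of every gate's read frequency times its gate number.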

Sequence | protein stability index (san1∆) | protein stability index (doa10∆) | protein stability index (pdr5∆) | protein stability index (ubr1∆)
LAAPQLVQMYIGEGAKL [RPT5] | 2.48 ± 0.26 | – | – | –
LVEARSLGHQTSLITAV [MTR3] | 2.79 ± 0.082 | 2.69 ± 0.08 | 1.97 ± 0.067 | 1.25 ± 0.064
DIAGQRDDALVVETITS [RRP42] | 2.27 ± 0.27 | 3.1 ± 0.11 | 3.28 ± 0.094 | 2.56 ± 0.092
DGHYIEENSQGNILDFN [REC8] | 2.89 ± 0.065 | 3.23 ± 0.11 | 2.67 ± 0.098 | 2.81 ± 0.1
SCISISDIISMLQISDD [RRI2] | 1.19 ± 0.12 | 1.82 ± 0.083 | 1.34 ± 0.061 | 1.14 ± 0.04
QKKVLIDGPKAGVPRQA [RPL14A] | 3.05 ± 0.059 | 3.45 ± 0.087 | 3.35 ± 0.084 | 3.35 ± 0.073
DTKIDQVNGNIRKVSND [SMC3] | 3 ± 0.12 | 3.47 ± 0.16 | 3.07 ± 0.24 | 3.27 ± 0.13
SYSPTSPSYSPTSPNYS [RPO21] | 2.84 ± 0.054 | 2.88 ± 0.065 | 2.96 ± 0.056 | 3.066 ± 0.028
YPIYELLMSCPRLSHLS [GRR1] | 1.45 ± 0.14 | 1.42 ± 0.056 | 1.4 ± 0.048 | 1.39 ± 0.052
RVADEDANLNDLPETGF [IRR1] | 3.44 ± 0.078 | 3 ± 0.095 | 3.22 ± 0.11 | 3.13 ± 0.089
SGYVRSRGESDDSLNRL [RPS21A] | 2.17 ± 0.084 | 2.94 ± 0.14 | 1.85 ± 0.074 | 2.88 ± 0.059
ITSFLLSKMENVNLDDY [NAS6] | 1.87 ± 0.12 | 1.95 ± 0.11 | 1.54 ± 0.052 | 1.85 ± 0.057
MSVERGIRWELISRLCP [RPT1] | 1.88 ± 0.07 | 1.73 ± 0.052 | 2.17 ± 0.048 | 1.93 ± 0.034
LKEILNVAKNMKTPSLT [RPO21] | 3.1 ± 0.072 | 3.33 ± 0.12 | 3.06 ± 0.11 | 3.47 ± 0.12
VKIIRKSETSGRYASYR [RPB5] | 3.01 ± 0.053 | 3.09 ± 0.076 | 3.04 ± 0.05 | 3.09 ± 0.045
KYRPETAAEKKERLTKE [RPL8A] | 3.12 ± 0.056 | 3.08 ± 0.081 | 2.76 ± 0.076 | 3.01 ± 0.067
GREGIWSKTIKARTNLH [RPC34] | – | 1.46 ± 0.12 | 1.58 ± 0.2 | 1.51 ± 0.29
LQRDLFIRLPHWPLNWY [RGR1] | 2.11 ± 0.082 | 2.05 ± 0.095 | 2.15 ± 0.061 | 2.11 ± 0.076
RPEQLSNIIHDESDTIS [SNF6] | 2.02 ± 0.11 | 1.82 ± 0.09 | 2.58 ± 0.063 | 2.32 ± 0.061
QFASPVRWIETQDVFLK [FAS2] | 2.25 ± 0.027 | 2.3 ± 0.026 | 2.06 ± 0.022 | 2.195 ± 0.018
RDYSKEILGINLANEQP [SIR4] | 3.07 ± 0.039 | 2.71 ± 0.048 | 3.04 ± 0.044 | 3.02 ± 0.036
EQHHINNLKNSGNSANN [GAL11] | 2.39 ± 0.1 | 2.41 ± 0.14 | 2.09 ± 0.088 | 2.32 ± 0.13
NTSAIQETASPLSQDEL [YIL149C/MLP2] | 1.19 ± 0.17 | 1.23 ± 0.09 | 1.39 ± 0.091 | 1.25 ± 0.077
LLDVKLAIDNMYILGMC [YCG1] | 1.86 ± 0.071 | 1.56 ± 0.086 | 1.51 ± 0.051 | 2.12 ± 0.05
AKEVKVLYHTSGAITFV [PRP8] | 2.58 ± 0.055 | 2.12 ± 0.055 | 2.5 ± 0.064 | 2.72 ± 0.068
EVYMRYRNFMVNSYRLN [SWI3] | 1.46 ± 0.099 | 2.19 ± 0.062 | 1.62 ± 0.06 | 1.44 ± 0.097

Sequence | protein stability index (san1∆) | protein stability index (doa10∆) | protein stability index (pdr5∆) | protein stability index (ubr1∆)
GSLNATNFSPTPANNGE [SNF2] | 2.76 ± 0.049 | 2.93 ± 0.055 | 3.07 ± 0.061 | 3.04 ± 0.051
SHGNPVVDFLKRNGSTL [FAS1] | 3.1 ± 0.043 | 3.02 ± 0.052 | 3.17 ± 0.049 | 3.11 ± 0.038
LEIASSIDCLLILILVI [SWI1] | 2.34 ± 0.074 | 1.98 ± 0.07 | 2.24 ± 0.046 | 1.71 ± 0.035
EKKGIVQASVTSSTHER [RET1] | 3.45 ± 0.15 | 3.28 ± 0.19 | 3.1 ± 0.23 | 3.24 ± 0.11
NNSNSNNNDNNNSNTVA [SWI1] | 3.04 ± 0.042 | 2.95 ± 0.058 | 3.14 ± 0.051 | 3.13 ± 0.045
FSSNLSYANHLEESDVE [YOR098C/NUP1] | 1.91 ± 0.082 | 2.45 ± 0.087 | 2.22 ± 0.059 | 1.89 ± 0.052
KFHSELQYLDKHIKNLE [RPN12] | 2.84 ± 0.13 | 3.14 ± 0.12 | 2.7 ± 0.17 | 3.15 ± 0.072
KKFIEISDVKIQVAAFI [PRP8] | 2.65 ± 0.048 | 2.84 ± 0.058 | 2.54 ± 0.052 | 2.55 ± 0.042
VSCYRPRRDGERKRKSV [RPS6A] | 3.51 ± 0.13 | 1.79 ± 0.22 | 2.91 ± 0.17 | 3.38 ± 0.082
FNAPATGNGTTTTSNTS [YOR098C/NUP1] | 2.8 ± 0.035 | 2.44 ± 0.034 | 2.83 ± 0.035 | 2.836 ± 0.027
ASVGDILKTLERSICAL [YML031W/NDC1] | 2.79 ± 0.086 | 2.12 ± 0.066 | 2.94 ± 0.088 | 2.64 ± 0.058
WPQSKNCEYEDPPNEGD [RPB3] | – | 3.45 ± 0.25 | – | 3.2 ± 0.14
DTIMENPEPNKKNIQKA [IRR1] | 3.18 ± 0.2 | 2.36 ± 0.25 | 2.84 ± 0.13 | 2.99 ± 0.11
IVERETNWIIYPLWVMA [CSN12] | 2.76 ± 0.24 | 2.81 ± 0.19 | 3.42 ± 0.24 | –
EYLFKPQLISDKFSPED [ARP7] | 2.32 ± 0.056 | 2.38 ± 0.053 | 2.46 ± 0.042 | 2.17 ± 0.041
QKVLNAHRQRAMEARSS [SMC4] | 1.98 ± 0.15 | 1.95 ± 0.12 | 2.36 ± 0.15 | 1.32 ± 0.073
RFQKCFPPGVIGIDEGS [RPC40] | – | 2.15 ± 0.11 | 2.15 ± 0.22 | 2.43 ± 0.18
KESWDPNTTKTKLRAFV [YGR119C/NUP57] | 3.37 ± 0.12 | 3.5 ± 0.22 | 2.93 ± 0.19 | 2.77 ± 0.1
EEHHEEEPSRVDPEQEA [RPT4] | 3.14 ± 0.052 | 3.09 ± 0.082 | 3.28 ± 0.094 | 3.26 ± 0.064
VTSADSNLKISLVKYPE [SWI1] | 2.52 ± 0.085 | 2.61 ± 0.067 | 2.72 ± 0.073 | 2.75 ± 0.05
EQKKTATEVTPQEPKHI [RPC19] | 2.6 ± 0.072 | 2.45 ± 0.054 | 3.02 ± 0.054 | 2.54 ± 0.04
PKAMTDTDNECVAAWGV [HRT1] | 3.03 ± 0.13 | 3.23 ± 0.12 | 3.48 ± 0.17 | 3.05 ± 0.042
AKIDVMLTIARLGFFYN [RPN7] | 3.42 ± 0.14 | 2.44 ± 0.15 | 2.89 ± 0.14 | 3.14 ± 0.094
LGHKELKVRKGHIAKLM [RPB2] | 1.97 ± 0.1 | 2.54 ± 0.066 | 2.53 ± 0.064 | 2.72 ± 0.047
SGNTNGAGSAFGFSSSG [YOR098C/NUP1] | 3.07 ± 0.064 | 3.25 ± 0.071 | 3.13 ± 0.064 | 3.02 ± 0.087
KLQGLYENIPIYATFLN [YDL116W/NUP84] | 1.22 ± 0.14 | 1.32 ± 0.063 | 1.25 ± 0.058 | 1.13 ± 0.059
